Data reported in IntAct's records for PubMed 19351902.

B1: Short transient receptor potential channel 3 (Mus musculus), Q9QZC1 (parent)
chain: MSTKVKKCREPARVTLPAPEEEEDGEAEGGESQRRRRGWRGVNGGLEPPCPRAPPSPGPDASSEGSPSRWRTAGMRDKGRRQAVRGPAFMFGARGPSLTAEEERFLDAAEYGNIPVVRKMLEESRTLNVNCVDYMGQNALQLAVGNEHLEVTELLLKKENLARIGDALLLAISKGYVRIVEAILGHPGFAASRRLTLSPCEQELRDDDFYAYDEDGTRFSPDITPIILAAHCHKYEVVHLLLLKGARIERPHDYFCRCSDCAEKQRLDAFSHSRSRINAYKGLASPAYLSLSSEDPVLTALELSNELAKLANIEKEFKNDYRKLSMQCKDFVVGVLDLCRDSEEVEAILNGDLESAEPLERHGHKASLSRVKLAIKYEVKKFVAHPNCQQQLLTIWYENLSGLREQTIAIKCLVVLVVALGLPFLAIGYWIAPCSRLGKILRSPFMKFVAHAASFIIFLGLLVFNASDRFEGITTLPNITVIDYPKQIFRVKTTQFTWTEMLIMVWVLGMMWSECKELWLEGPREYIVQLWNVLDFGMLSIFIAAFTARFLAFLQATKAQQYVDSHVQESDLSEVTLPPEVQYFTYARDKWLPSDPQIISEGLYAIAVVLSFSRIAYILPANESFGPLQISLGRTVKDIFKFMVLFIMVFLAFMIGMFILYSYYLGAKVNPAFTTVEESFKTLFWSIFGLSEVTSVVLKYDHKFIENIGYVLYGIYNVTMVVVLLNMLIAMINSSYQEIEDDSDVEWKFARSKLWLSYFDDGKTLPPPFSLVPSPKSFVYFIMRITNFSKCRRRRLQKDLELGMGNSKSRLNLFTQSNSRVFESHSFNSILNQPTRYQQIMKRLIKRYVLKAQVDKENDEVNEGELKEIKQDISSLRYELLEDKSQATEELAILIHKLSEKLNPSVLRCE

Variants of: B1
Conditions: with kpcg_human PRKCG

Q: T635A was tested. Which “effect of a mutation on the interaction” value did it give?
A: disrupting interaction strength
